Assay [1] addresses truncated prolactin receptor of Nb2 cells (rat (endogenous in Nb2-11)).
Assay [2] has the same target. This is another data set of the same source.

In assay [1], “Fc-(FL3)-mono-hGH (from UniProt P01241 27-217) (Fc fusion)” gave an EC50 of Nb2-11 cell proliferation (Alamar Blue, 3 days), Fig 3C of 0.81 nM. The substance “Mono-hGH-(FL3)-Fc (from UniProt P01241 27-217) (Fc fusion)” came in with an EC50 of Nb2-11 cell proliferation (Alamar Blue, 3 days), Fig 3A in assay [2] of 1.64 nM.

Values taken from paper PMC12080763.
